Data reported in article PMC10073703.

Target: Haemagglutinin (HA) of influenza A/Delaware/55/2019 (H1N1), from Flucelvax monovalent drug substance (Monobulk) (influenza A virus A/Delaware/55/2019 (H1N1))
Assay: SEC

Substance: Haemagglutinin (HA) of influenza A/Delaware/55/2019 (H1N1), from Flucelvax monovalent drug substance (Monobulk) (natural protein)
- stoichiometry N: 3
